Results: patent US20120135923A1 (IPSEN PHARMA S A S, published 2012)
Bridge positions count the residues as written; N and C are the ends. Square brackets hold non-standard residues; d marks the D form. Ends that are not written are not given here. 1Nal = N[C@@H](Cc1cccc2ccccc12)C(=O)O; d2Nal = N[C@H](Cc1ccc2ccccc2c1)C(=O)O; Bta = N[C@@H](Cc1csc2ccccc12)C(=O)O; Aic = NC1(C(=O)O)Cc2ccccc2C1; Ac6c = NC1(C(=O)O)CCCCC1; Aib = CC(C)(N)C(=O)O; βAla = NCCC(=O)O

B1: Ac-c(Cys-Glu-His-D-2-Nal-Arg-1-Nal-Ala-Cys)-Pro-Pro-Lys-Asp-β-Ala-Tyr-Gly-Arg-Lys-Lys-Arg-Arg-Gln-Arg-Arg-Arg-NH2 (peptide)
peptide: CEHXRXACPPKDXYGRKKRRQRRR
modifications: N-terminal Ac; D-2-Nal at 4; 1-Nal at 6; β-Ala at 13; disulfide Cys1-Cys8; C-terminal NH2
B2: Ac-c(Cys-Glu-His-D-2-Nal-Arg-Bal-Ala-Cys)-Pro-Pro-Lys-Asp-β-[…]NH2 (peptide)
peptide: Ac-CEH[d2Nal]R[Bta]ACPPKD[βAla]GRKRRRQRRR-NH2
modifications: disulfide 1-8
SMILES: CC(=O)N[C@H]1CSSC[C@@H](C(=O)N2CCC[C@H]2C(=O)N2CCC[C@H]2C(=O)N[C@@H](CCCCN)C(=O)N[C@@H](CC(=O)O)C(=O)NCCC(=O)NCC(=O)N[C@@H](CCCNC(=N)N)C(=O)N[C@@H](CCCCN)C(=O)N[C@@H](CCCNC(=N)N)C(=O)N[C@@H](CCCNC(=N)N)C(=O)N[C@@H](CCCNC(=N)N)C(=O)N[C@@H](CCC(N)=O)C(=O)N[C@@H](CCCNC(=N)N)C(=O)N[C@@H](CCCNC(=N)N)C(=O)N[C@@H](CCCNC(=N)N)C(N)=O)NC(=O)[C@H](C)NC(=O)[C@H](Cc2csc3ccccc23)NC(=O)[C@H](CCCNC(=N)N)NC(=O)[C@@H](Cc2ccc3ccccc3c2)NC(=O)[C@H](Cc2c[nH]cn2)NC(=O)[C@H](CCC(=O)O)NC1=O
B3: Ac-c(Cys-Glu-His-D-2-Nal-Arg-Bal-Ala-Cys)-Pro-Pro-Lys-Asp-β-[…]NH2 (peptide)
peptide: Ac-CEH[d2Nal]R[Bta]ACPPKD[βAla]GRRKRRQRRR-NH2
modifications: disulfide 1-8
SMILES: CC(=O)N[C@H]1CSSC[C@@H](C(=O)N2CCC[C@H]2C(=O)N2CCC[C@H]2C(=O)N[C@@H](CCCCN)C(=O)N[C@@H](CC(=O)O)C(=O)NCCC(=O)NCC(=O)N[C@@H](CCCNC(=N)N)C(=O)N[C@@H](CCCNC(=N)N)C(=O)N[C@@H](CCCCN)C(=O)N[C@@H](CCCNC(=N)N)C(=O)N[C@@H](CCCNC(=N)N)C(=O)N[C@@H](CCC(N)=O)C(=O)N[C@@H](CCCNC(=N)N)C(=O)N[C@@H](CCCNC(=N)N)C(=O)N[C@@H](CCCNC(=N)N)C(N)=O)NC(=O)[C@H](C)NC(=O)[C@H](Cc2csc3ccccc23)NC(=O)[C@H](CCCNC(=N)N)NC(=O)[C@@H](Cc2ccc3ccccc3c2)NC(=O)[C@H](Cc2c[nH]cn2)NC(=O)[C@H](CCC(=O)O)NC1=O
B4: Ac-c(Cys-Glu-His-D-2-Nal-Arg-Bal-Ala-Cys)-Pro-Pro-Lys-Asp-β-Ala-Tyr-Gly-Arg-Lys-Lys-Arg-Arg-Gln-Arg-Arg-Arg-NH2 (peptide)
peptide: CEHXRXACPPKDXYGRKKRRQRRR
modifications: N-terminal Ac; D-2-Nal at 4; Bal at 6; β-Ala at 13; disulfide Cys1-Cys8; C-terminal NH2
B5: c[Hydantoin(C(O)-(Asp-Aic))-D-2-Nal-Arg-Trp-Lys]-NH2 (peptide)
peptide: D[Aic][d2Nal]RWK-NH2
modifications: lactam 1-6; also: hydantoin ring: N-terminal N of Asp1 and backbone N of residue 2 bridged by one C(O), bridge at N via C(O), other end not in the chain
B6: c[Hydantoin(C(O)-(Asp-A6c))-D-2-Nal-Arg-Trp-Lys]-NH2 (peptide)
peptide: D[Ac6c][d2Nal]RWK-NH2
modifications: lactam 1-6; also: hydantoin ring: N-terminal N of Asp1 and backbone N of residue 2 bridged by one C(O), bridge at N via C(O), other end not in the chain
B7: Ac-c(Cys-Glu-His-D-2-Nal-Arg-Bal-Ala-Cys)-Pro-Pro-Lys-Asp-β-Ala-Tyr-Aib-Arg-Lys-Lys-Arg-Arg-Gln-Arg-Arg-Arg-NH2 (peptide)
peptide: Ac-CEH[d2Nal]R[Bta]ACPPKD[βAla]Y[Aib]RKKRRQRRR-NH2
modifications: disulfide 1-8
SMILES: CC(=O)N[C@H]1CSSC[C@@H](C(=O)N2CCC[C@H]2C(=O)N2CCC[C@H]2C(=O)N[C@@H](CCCCN)C(=O)N[C@@H](CC(=O)O)C(=O)NCCC(=O)N[C@@H](Cc2ccc(O)cc2)C(=O)NC(C)(C)C(=O)N[C@@H](CCCNC(=N)N)C(=O)N[C@@H](CCCCN)C(=O)N[C@@H](CCCCN)C(=O)N[C@@H](CCCNC(=N)N)C(=O)N[C@@H](CCCNC(=N)N)C(=O)N[C@@H](CCC(N)=O)C(=O)N[C@@H](CCCNC(=N)N)C(=O)N[C@@H](CCCNC(=N)N)C(=O)N[C@@H](CCCNC(=N)N)C(N)=O)NC(=O)[C@H](C)NC(=O)[C@H](Cc2csc3ccccc23)NC(=O)[C@H](CCCNC(=N)N)NC(=O)[C@@H](Cc2ccc3ccccc3c2)NC(=O)[C@H](Cc2c[nH]cn2)NC(=O)[C@H](CCC(=O)O)NC1=O

Target: T1, human melanocortin receptor subtype 4 (hMC4-R) (human, UniProt P32245 1-332)
T1 construct: whole, on cells; membranes of CHO-K1 cells
T1 sequence (P32245 whole entry): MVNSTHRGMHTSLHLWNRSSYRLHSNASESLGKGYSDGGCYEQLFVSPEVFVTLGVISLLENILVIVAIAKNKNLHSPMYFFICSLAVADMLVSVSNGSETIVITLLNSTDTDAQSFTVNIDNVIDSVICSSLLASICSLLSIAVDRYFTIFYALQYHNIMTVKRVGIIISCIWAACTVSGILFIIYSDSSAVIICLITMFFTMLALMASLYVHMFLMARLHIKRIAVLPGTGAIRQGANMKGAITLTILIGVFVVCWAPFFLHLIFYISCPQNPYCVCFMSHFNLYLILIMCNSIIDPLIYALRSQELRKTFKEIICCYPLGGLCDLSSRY
Assay: [125I]-NDP-α-MSH competition, membranes

Binder | Ki [nM]
B1 | 0.588
Ac-CEH[d2Nal]R[Bta]ACPPKD[βAla]RRRRRRQRRR-NH2 (disulfide 1-8) | 0.781
B2 | 0.425
B3 | 0.573
B4 | 0.38
B5 | 35.8
B6 | 16.5
Ac-CEH[d2Nal]R[1Nal]ACPPKD[βAla]RRRRRQRRR-NH2 (disulfide 1-8) [Ac-c(Cys-Glu-His-D-2-Nal-Arg-1-Nal-Ala-Cys)-Pro-Pro-Lys-Asp-β-[…]NH2] | 0.238
B7 | 0.783

Target: T2, human melanocortin receptor subtype 5 (hMC5-R) (human, UniProt P33032 1-325)
T2 construct: whole, on cells; membranes of CHO-K1 cells
T2 sequence (P33032 whole entry): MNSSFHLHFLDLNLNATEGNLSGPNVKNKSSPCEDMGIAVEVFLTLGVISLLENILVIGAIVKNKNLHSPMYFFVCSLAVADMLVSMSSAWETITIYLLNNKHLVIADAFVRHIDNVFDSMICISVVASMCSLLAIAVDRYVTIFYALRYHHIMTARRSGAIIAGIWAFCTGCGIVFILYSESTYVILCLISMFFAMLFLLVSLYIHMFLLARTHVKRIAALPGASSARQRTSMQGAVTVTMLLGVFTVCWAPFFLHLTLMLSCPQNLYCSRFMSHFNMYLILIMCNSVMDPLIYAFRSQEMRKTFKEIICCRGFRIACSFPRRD
Assay: [125I]-NDP-α-MSH competition, membranes

Binder | Ki [nM]
B1 | 22.6
Ac-CEH[d2Nal]R[Bta]ACPPKD[βAla]RRRRRRQRRR-NH2 (disulfide 1-8) | 84
B2 | 15.5
B3 | 15.7
B4 | 15.3
B5 | 1160
B6 | 451
Ac-CEH[d2Nal]R[1Nal]ACPPKD[βAla]RRRRRQRRR-NH2 (disulfide 1-8) [Ac-c(Cys-Glu-His-D-2-Nal-Arg-1-Nal-Ala-Cys)-Pro-Pro-Lys-Asp-β-[…]NH2] | 41.7
B7 | 91.8

Target: T3, human melanocortin receptor subtype 3 (hMC3-R) (human, UniProt P41968 1-323)
T3 construct: whole, on cells; membranes of CHO-K1 cells
T3 sequence (P41968 whole entry): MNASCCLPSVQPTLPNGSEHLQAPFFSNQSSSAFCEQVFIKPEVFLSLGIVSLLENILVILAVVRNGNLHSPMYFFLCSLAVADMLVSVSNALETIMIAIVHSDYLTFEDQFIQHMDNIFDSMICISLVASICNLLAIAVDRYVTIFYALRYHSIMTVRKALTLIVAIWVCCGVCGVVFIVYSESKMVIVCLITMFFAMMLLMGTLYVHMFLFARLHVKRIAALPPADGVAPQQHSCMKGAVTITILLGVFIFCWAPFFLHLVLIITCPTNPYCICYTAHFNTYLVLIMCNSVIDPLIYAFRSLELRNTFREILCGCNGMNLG
Assay: [125I]-NDP-α-MSH competition, membranes

Binder | Ki [nM]
B1 | 6.28
Ac-CEH[d2Nal]R[Bta]ACPPKD[βAla]RRRRRRQRRR-NH2 (disulfide 1-8) | 14.3
B2 | 2.15
B3 | 1.59
B4 | 5.22
B5 | 2630
B6 | 1480
Ac-CEH[d2Nal]R[1Nal]ACPPKD[βAla]RRRRRQRRR-NH2 (disulfide 1-8) [Ac-c(Cys-Glu-His-D-2-Nal-Arg-1-Nal-Ala-Cys)-Pro-Pro-Lys-Asp-β-[…]NH2] | 6.56
B7 | 10.2

Target: T4, human melanocortin receptor subtype 1 (hMC1-R) (human, UniProt Q01726 1-317)
T4 construct: whole, on cells; membranes of CHO-K1 cells
T4 sequence (Q01726 whole entry): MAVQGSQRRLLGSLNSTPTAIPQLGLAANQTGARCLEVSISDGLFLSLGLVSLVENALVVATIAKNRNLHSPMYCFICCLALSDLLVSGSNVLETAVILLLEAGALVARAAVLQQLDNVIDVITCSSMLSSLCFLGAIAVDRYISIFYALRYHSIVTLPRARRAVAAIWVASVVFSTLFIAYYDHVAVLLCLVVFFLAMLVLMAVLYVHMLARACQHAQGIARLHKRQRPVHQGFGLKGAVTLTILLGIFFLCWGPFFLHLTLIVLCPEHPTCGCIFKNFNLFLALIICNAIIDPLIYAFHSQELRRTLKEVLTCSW
Assay: [125I]-NDP-α-MSH competition, membranes

Binder | Ki [nM]
B1 | 4.59
Ac-CEH[d2Nal]R[Bta]ACPPKD[βAla]RRRRRRQRRR-NH2 (disulfide 1-8) | 6.77
B2 | 4.29
B3 | 2.5
B4 | 6.46
B5 | 9030
B6 | 2170
Ac-CEH[d2Nal]R[1Nal]ACPPKD[βAla]RRRRRQRRR-NH2 (disulfide 1-8) [Ac-c(Cys-Glu-His-D-2-Nal-Arg-1-Nal-Ala-Cys)-Pro-Pro-Lys-Asp-β-[…]NH2] | 2.42
B7 | 7.84
